Values of other authors as cited in PMC4718210.
pKd: −log10 of the molar value. Where two headings read alike, the source gives them in different places.

Experiments:
[1] = target: RXFP2 receptor (Homo sapiens) (UniProt Q8WXD0)
[2] = target: RXFP4 receptor (Homo sapiens) (UniProt Q8TDU9)
[3] = target: RXFP4 receptor (Homo sapiens) (UniProt Q8TDU9); remark: listed apart in the source
[4] = target: TRH1 receptor (Homo sapiens) (UniProt P34981)
[5] = target: RXFP1 receptor (Homo sapiens) (UniProt Q9HBX9)
Sequence of UniProt Q9HBX9 (Q9HBX9 whole entry): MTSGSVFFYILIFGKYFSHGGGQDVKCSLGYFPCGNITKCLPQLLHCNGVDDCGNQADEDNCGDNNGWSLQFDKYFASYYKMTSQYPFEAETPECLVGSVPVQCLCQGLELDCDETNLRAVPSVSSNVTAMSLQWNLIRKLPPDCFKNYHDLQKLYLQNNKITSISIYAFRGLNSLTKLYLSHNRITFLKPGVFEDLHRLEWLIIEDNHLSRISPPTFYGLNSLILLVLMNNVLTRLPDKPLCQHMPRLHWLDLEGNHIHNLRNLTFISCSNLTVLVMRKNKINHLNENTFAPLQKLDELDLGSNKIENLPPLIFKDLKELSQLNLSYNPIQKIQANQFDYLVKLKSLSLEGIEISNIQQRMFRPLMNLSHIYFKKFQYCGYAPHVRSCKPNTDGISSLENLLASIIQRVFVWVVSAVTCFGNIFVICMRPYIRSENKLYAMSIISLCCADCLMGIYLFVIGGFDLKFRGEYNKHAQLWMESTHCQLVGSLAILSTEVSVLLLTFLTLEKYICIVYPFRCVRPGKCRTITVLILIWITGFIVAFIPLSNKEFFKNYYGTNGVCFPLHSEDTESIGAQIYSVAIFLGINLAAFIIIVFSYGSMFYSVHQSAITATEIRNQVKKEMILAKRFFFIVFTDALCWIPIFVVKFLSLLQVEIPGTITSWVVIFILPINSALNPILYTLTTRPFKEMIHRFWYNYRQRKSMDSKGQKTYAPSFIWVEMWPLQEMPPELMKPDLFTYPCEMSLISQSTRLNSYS

Sequence of UniProt Q8TDU9 (Q8TDU9 whole entry): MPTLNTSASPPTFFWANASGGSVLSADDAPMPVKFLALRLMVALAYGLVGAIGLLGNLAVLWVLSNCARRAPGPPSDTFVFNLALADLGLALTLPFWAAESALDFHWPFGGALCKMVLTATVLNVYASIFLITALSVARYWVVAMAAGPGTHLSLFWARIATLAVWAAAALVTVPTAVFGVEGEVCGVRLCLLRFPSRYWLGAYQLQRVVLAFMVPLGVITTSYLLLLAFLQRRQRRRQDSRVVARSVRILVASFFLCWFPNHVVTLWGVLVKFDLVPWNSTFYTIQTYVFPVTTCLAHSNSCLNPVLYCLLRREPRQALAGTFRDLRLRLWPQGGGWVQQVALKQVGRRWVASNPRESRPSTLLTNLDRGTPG
Sequence of UniProt P34981 (P34981 whole entry): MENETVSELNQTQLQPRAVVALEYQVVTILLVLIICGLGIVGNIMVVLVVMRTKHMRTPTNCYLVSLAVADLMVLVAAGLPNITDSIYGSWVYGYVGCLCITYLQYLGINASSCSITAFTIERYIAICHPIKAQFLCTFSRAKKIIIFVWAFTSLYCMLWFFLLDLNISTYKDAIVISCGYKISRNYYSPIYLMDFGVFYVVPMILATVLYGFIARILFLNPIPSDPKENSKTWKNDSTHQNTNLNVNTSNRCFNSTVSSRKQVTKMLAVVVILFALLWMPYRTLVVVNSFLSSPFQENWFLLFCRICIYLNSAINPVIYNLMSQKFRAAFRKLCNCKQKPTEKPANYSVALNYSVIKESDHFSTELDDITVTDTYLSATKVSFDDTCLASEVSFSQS
Sequence of UniProt Q8WXD0 (Q8WXD0 whole entry): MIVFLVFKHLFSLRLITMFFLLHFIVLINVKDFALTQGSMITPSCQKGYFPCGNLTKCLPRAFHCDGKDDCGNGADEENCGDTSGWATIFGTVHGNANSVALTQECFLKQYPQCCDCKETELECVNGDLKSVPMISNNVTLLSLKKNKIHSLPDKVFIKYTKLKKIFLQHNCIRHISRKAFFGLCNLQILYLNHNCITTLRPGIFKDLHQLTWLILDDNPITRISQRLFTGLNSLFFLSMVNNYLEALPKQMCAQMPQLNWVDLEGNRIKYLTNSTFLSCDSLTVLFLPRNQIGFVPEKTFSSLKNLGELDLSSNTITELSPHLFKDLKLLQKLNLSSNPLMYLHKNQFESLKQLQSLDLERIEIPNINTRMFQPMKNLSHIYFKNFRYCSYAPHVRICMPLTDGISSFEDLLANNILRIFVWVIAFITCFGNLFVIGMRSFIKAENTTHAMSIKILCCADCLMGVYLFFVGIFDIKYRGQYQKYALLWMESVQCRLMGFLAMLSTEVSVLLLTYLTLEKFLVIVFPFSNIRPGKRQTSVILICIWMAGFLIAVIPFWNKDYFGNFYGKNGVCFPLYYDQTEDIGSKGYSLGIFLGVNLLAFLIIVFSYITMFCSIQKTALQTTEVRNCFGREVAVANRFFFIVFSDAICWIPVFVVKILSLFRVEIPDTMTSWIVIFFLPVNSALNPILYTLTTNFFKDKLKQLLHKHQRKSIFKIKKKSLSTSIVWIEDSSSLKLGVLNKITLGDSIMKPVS

For INSL3 (from UniProt P51460), the pKd [1] is given as 9.00.
In the case of INSL5 (from UniProt Q9WUG6), the pKd [2] is given as 8.30.
In the case of INSL5 (from UniProt Q9Y5Q6), the pKd [3] is listed as 8.30.
In the case of TRH (from UniProt P20396), the pKd [4] is listed as 7.89.
For relaxin (from UniProt P04090), the pKd [5] is listed as 9.30.
